# Results: the supplement of paper PMC9732359
# ± gives the uncertainty stated by the source.
# Test: protein stability index of a GFP-peptide fusion (yeast GPS) (PSI 1-4); higher = more stable; sorted into four equal gates, so the index is relative within each strain
# How it was run: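 Tiled 17-residue yeast protein peptides were fused downstream of GFP in a plasmid that also expresses Cherry, and the pooled library was carried in yeast. Mid-log cultures in leucine-free medium were sorted into four equal gates by GFP/Cherry fluorescence ratio, and plasmids from each gate were PCR-amplified and Illumina-sequenced, with reads assigned to strains by barcodes. The protein stability index for each peptide was each gate's read frequency times its gate number, summed.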
Sequence,protein stability index (doa10∆),protein stability index (pdr5∆),protein stability index (san1∆),protein stability index (ubr1∆)
FQSVQLNINNPNFLIMQ [SMC2],2.6 ± 0.06,2.62 ± 0.071,1.75 ± 0.062,2.1 ± 0.061
FRHFIGIKAKHDKNIQK [ISW2],2.68 ± 0.089,2.6 ± 0.085,2.48 ± 0.06,2.51 ± 0.078
FRLIDTGALINNLEPRQ [RPN11],2.81 ± 0.23,3.18 ± 0.24,,
FRPIEIFTDFLPSSNGS [RRP42],2.19 ± 0.065,3.07 ± 0.08,3.09 ± 0.056,2.87 ± 0.063
FSAPIRPDIVHTVFTSV [RPL4A],1.7 ± 0.056,2.07 ± 0.057,1.73 ± 0.094,2.16 ± 0.056
FSEVYEYNRLKVQDAIE [LIN1],2.71 ± 0.059,2.17 ± 0.055,3.04 ± 0.076,2.89 ± 0.086
FSFGGTQTGQNTGPSTG [YGL172W/NUP49],3.59 ± 0.23,3.34 ± 0.17,3.18 ± 0.1,3.1 ± 0.11
FSFGKSDAAKEPPGSNT [YOR098C/NUP1],,3.58 ± 0.16,2.84 ± 0.13,2.68 ± 0.2
FSMGHIRSSSVSLVAEA [MED4],1.52 ± 0.078,1.67 ± 0.057,1.31 ± 0.14,1.69 ± 0.033
FSPDGHIFQVEYALEAV [PRE6],3 ± 0.057,3.07 ± 0.054,3.1 ± 0.035,3.18 ± 0.037
FSQTVADNNDLQESINH [ECM29],3.03 ± 0.055,3.08 ± 0.049,3.02 ± 0.047,3.1 ± 0.048
FSRHAQQQTSTFNSKPV [SIR4],2.38 ± 0.056,2.82 ± 0.058,2.07 ± 0.076,2.38 ± 0.047
FSSSVSLSYMAFPNASK [RRP40],1.65 ± 0.078,1.76 ± 0.074,1.65 ± 0.12,1.72 ± 0.072
FSYFFESFESYHNLTTH [RPN6],2.61 ± 0.089,2.65 ± 0.082,2.85 ± 0.084,2.78 ± 0.066
FTGNNSTPGGGSVFNMN [YOR098C/NUP1],2.9 ± 0.097,3.58 ± 0.19,,3.03 ± 0.14
FTICLNDRNPRLNENKK [CSN12],3.03 ± 0.053,3.21 ± 0.056,3.11 ± 0.043,3.06 ± 0.043
FTLLDFKKQMQTIMKMG [SRP54],1.36 ± 0.13,2.67 ± 0.15,1.42 ± 0.17,2.71 ± 0.17
FTNPSVDIQIINQYQLL [SWI1],1.44 ± 0.055,1.66 ± 0.07,1.43 ± 0.11,1.31 ± 0.063
FTYNKFLLNQNKQLSQS [YIL149C/MLP2],2.68 ± 0.069,2.96 ± 0.06,3.15 ± 0.06,3.17 ± 0.062
FVHSVKKFLRVRIFTKI [SRB4],2.21 ± 0.082,2.07 ± 0.072,1.22 ± 0.12,2.07 ± 0.059
FVIRREVTKGEKTYTKA [RPS6A],3.24 ± 0.17,3.13 ± 0.14,,3.53 ± 0.13
FVNGVATSFSRKKARTF [FAS2],1.85 ± 0.12,1.76 ± 0.11,1.22 ± 0.23,1.14 ± 0.074
FVPVPALSAYHKVQTKL [RPS7B],2.42 ± 0.046,2.52 ± 0.046,2.27 ± 0.057,2.55 ± 0.032
FVQLCEMGYLIQISKLH [RPC82],1.74 ± 0.05,1.95 ± 0.064,1.77 ± 0.1,1.96 ± 0.058
FVSRIPIMFQDFDDSTA [IRR1],2.1 ± 0.04,1.96 ± 0.042,1.69 ± 0.053,2 ± 0.03
FVTQFRHLRRTGKVSEF [RET1],3.15 ± 0.24,2.5 ± 0.17,3.07 ± 0.093,2.41 ± 0.075
FYKLNMPDEFNTLYTAI [SRP72],2.5 ± 0.05,2.64 ± 0.053,2.66 ± 0.034,2.65 ± 0.043
